Data: patent publication EP3464323B1
pKd: −log10 of the molar value.

Biological target: CY5 fluorescently labeled CAS9 protein (S. pyogenes) (UniProt Q99ZW2)
Assay: fluorescence titration; 5 nM CY5-CAS9 titrated with peptide, quadratic fit

CADY (peptide) was tested, and the pKd was less than 7.00.
